We go through three substances from publication doi:10.1101/2022.06.21.496973.

For orientation: Kd means the equilibrium constant for the complex coming apart. A higher Kd goes with weaker binding.

For assay [1], the target named is taxol-stabilized microtubules (co-sedimentation assays) (porcine) (UniProt P02550). In words: co-sedimentation.
Assay [2] has as its target taxol-stabilized rhodamine-labeled, biotinylated microtubules stored overnight at 23°C or 37°C (damaged MTs) (porcine) (UniProt P02550). In words: TIRF microscopy of eGFP fluorescence on immobilised microtubules.
The target in assay [3] is 6XHis-557-C (Abl2 C-terminal half) (murine) (UniProt Q4JIM5). In words: BLI. (In BLI a coated tip is dipped into the sample, and binding shifts an interference pattern.)
Assay [4] addresses 6XHis-1024-1090 (Abl2 site II fragment) (murine) (UniProt Q4JIM5). In words: BLI.
In assay [5] the target is 6XHis-Abl2 (murine Abl2, residues 74-1182) (murine) (UniProt Q4JIM5). In words: BLI.
Assay [6] deals with 6XHis-688-924 (Abl2 site I fragment) (murine) (UniProt Q4JIM5). In words: BLI.

With “6XHis-Abl2Δ688-790 (naturally occurring splice isoform) (from UniProt Q4JIM5 74-1182) (natural protein)”, the dissociation constant Kd in assay [1] was found to be 400 nM.

Regarding “Abl2-eGFP (from UniProt Q4JIM5 74-1182) (natural protein)”, in assay [2], the mean fluorescence intensity per µm on MTs stored at 23°C was 0.91 a.u.·µm^-1; the mean fluorescence intensity per µm on MTs stored at 37°C came out at 0.71 a.u.·µm^-1; the mean intensity on borders of damage, MTs stored at 23°C came to 0.39 a.u; the mean intensity on borders of damage, MTs stored at 37°C came out at 0.38 a.u. For the same substance, in assay [2], the mean intensity on lattices, MTs stored at 23°C came to 0.3 a.u and the mean intensity on lattices, MTs stored at 37°C is 0.28 a.u. For the same substance, in assay [1], the Kd was 320 nM.

Turning to “porcine brain tubulin dimers (from UniProt P02550 1-451; Q767L7 1-444) (complex)”, the Kd in assay [3] was 17 nM; in assay [4] it was 252 nM; in assay [5] it was 42 nM; in assay [6], 118 nM.
